Reference: patent US20150353614

How the values were obtained:
Test in all cases: cell_activity
[1] = target: IA44 R267H (Escherichia coli) (UniProt P0A9E0); details: twice the Tmax of IA; E. coli HC175
[2] = target: IA32 L39M,S127C (Escherichia coli) (UniProt P0A9E0); details: half the Tmax of IA; E. coli HC175
[3] = target: IA (Idi-AraC DBD chimera) (Escherichia coli) (UniProt P0A9E0); details: no mevalonate

Row | Sequence | activity (Tmax relative to IA) [1] | activity (Tmax relative to IA) [2] | activity ([3]; 0.36 with 10 mM mevalonate, E. coli HC175) [relative RFP] | activity ([3]; 0.56 with 10 mM mevalonate) [relative RFP]
1 | TAGCATTTTTATCCATAAGATTAGCGGATCCTACCTGA (double strand) [I1I2 in PBAD] | 2 | 0.5 | 1 | –
2 | TAGCGGATCCTACCTGAAGATTAGCATTTTTATCCATA (double strand) [I2I1 in PBAD] | – | – | – | 1.12
